By Kd is commonly meant the free concentration of one partner at which half of the binding sites on the other are occupied at equilibrium, for simple one-to-one binding. Higher therefore signals lower affinity. For orientation: koff means the first-order rate constant of dissociation. Low values mean slow dissociation, high ones fast dissociation. The term kon denotes the second-order rate constant of association. Lower therefore signals slower complex formation.

Consider 3 molecules from publication PMC9606073 (Immunity, 2022).

The target of this assay is SARS-CoV-2 Omicron BA.4/BA.5 RBD (SARS-CoV-2 Omicron BA.4/BA.5, strain). As to the kind of experiment: SPR. The following applies: both partners purified.

B1: M8a-6 IgG (antibody, V domains shown)
VH: QVQLQQPGTELVMPGASVKLSCKTSGYTFTHYWMHWVKQRPGEGLEWIGEIAPSDNYVKYNQKFKGKSTLSVDRSSSTAYMQLSSLTSEDSAVYFCARPDNSGYPVYFDYWGQGTSLTVSS
VL: DIVMTQSQKFMSTSLGDRVSISCKASQDVGTTVAWYQQKPGQSPKLLIYWASTRHTGVPDRFTGTGSGTDYTLTISSVAAEDLALYYCQQHYNTPYTFGGGTKLEIE
notes: copies: 2 + 2
Molecule B1 came in with a Kd of 290 nM.

B2: C118 IgG (antibody, V domains shown)
VH: QVQLVESGGGVVQPGRSLRLSCAASGFTFSNYAMHWVRQAPGKGLEWVAVISYDGSNKYYADSVKGRFTISRDNSKNTLYLQMNSLRAEDTAIYYCASGYTGYDYFVRGDYYGLDVWGQGTTVTVSS
VL: QPVLTQSPSASASLGASVKLTCTLSSGHSSYAIAWHQQQPEKGPRYLMKLNTDGSHSKGDGIPDRFSGSSSGAERYLTISSLQSEDEADYYCQTWGTGILVFGGGTKLTVL
notes: copies: 2 + 2
Take B2: the affinity, expressed as Kd, was 28 nM; the dissociation rate constant (koff) came out at 0.0039 s⁻¹; the kon amounted to 140000 M⁻¹ s⁻¹.

B3: M8a-3 IgG (antibody, V domains shown)
VH: QVQLQQPGAELVLPGASVKLSCKASGYTFTNYWMHWVKQRPGHGLEWIGEIDPFDTYIKINQKFKGKSTLTVDTSSSTAYMQLSSLTSEDSAVYYCARPDSSGYPVYFDYWGQGTTLTVSS
VL: DIVMTQSHKFMSTSVGDRVSITCKASQDVGTYIAWYQQKPGQSPKLLIYWASTRHTGVPDRFTGSGSGTNYTLTISSVQAEDLALYHCQQHYSTPYTFGGGTKLEIK
notes: copies: 2 + 2
Molecule B3 registered a Kd of 2.2 nM, a koff of 0.00045 s⁻¹ and an on-rate (kon) of 210000 M⁻¹ s⁻¹.
